Assay results reported in FireProtDB (doi:10.1074/jbc.m110728200).

B1: Lysozyme C, P61626 (parent)
chain: MKALIVLGLVLLSVTVQGKVFERCELARTLKRLGMDGYRGISLANWMCLAKWESGYNTRATNYNAGDRSTDYGIFQINSRYWCNDGKTPGAVNACHLSCSALLQDNIADAVACAKRVVRDPQGIRAWVAWRNRCQNRDVRQYVQGCGV

Variants of: B1
Conditions: Homo sapiens; pH 2.6; Thermal; DSC; Gly-HCl 0.05 M; structure 1LZ1; whole UniProt chain shown

Row | Variant | Tm [°C] | unfolding enthalpy (calorimetric) [kcal/mol] | unfolding enthalpy (van 't Hoff) [kcal/mol]
1 | MKALIVLGLVLLSVTVQGKRFERCELARTLKRLGMDGYRGISLANWMCLAKWESGYNTRATNYNAGDRSTDYGIFQINSRYWCNDGKTPGAVNACHLSCSALLQDNIADAVACAKRVVRDPQGIRAWVAWRNRCQNRDVRQYVQGCGV [V20R] | 62.1 | 103 | 110
2 | MKALIVLGLVLLSVTVQGKNFERCELARTLKRLGMDGYRGISLANWMCLAKWESGYNTRATNYNAGDRSTDYGIFQINSRYWCNDGKTPGAVNACHLSCSALLQDNIADAVACAKRVVRDPQGIRAWVAWRNRCQNRDVRQYVQGCGV [V20N] | 59.1 | 104 | 99.9

Same assay, conditions: Homo sapiens; pH 2.7; 64.9 °C; Thermal; DSC; Gly-HCl 0.05 M; structure 1LZ1; whole UniProt chain shown

Row | Variant | ddG of mutation (higher = less stable) [kcal/mol] | heat capacity change of unfolding [kcal/mol/K] | unfolding enthalpy (calorimetric) [kcal/mol]
3 | MKALIVLGLVLLSVTVQGKRFERCELARTLKRLGMDGYRGISLANWMCLAKWESGYNTRATNYNAGDRSTDYGIFQINSRYWCNDGKTPGAVNACHLSCSALLQDNIADAVACAKRVVRDPQGIRAWVAWRNRCQNRDVRQYVQGCGV [V20R] | 0.38 | 1.41 | 106
4 | MKALIVLGLVLLSVTVQGKSFERCELARTLKRLGMDGYRGISLANWMCLAKWESGYNTRATNYNAGDRSTDYGIFQINSRYWCNDGKTPGAVNACHLSCSALLQDNIADAVACAKRVVRDPQGIRAWVAWRNRCQNRDVRQYVQGCGV [V20S] | 1.41 | 1.55 | 111
5 | MKALIVLGLVLLSVTVQGKNFERCELARTLKRLGMDGYRGISLANWMCLAKWESGYNTRATNYNAGDRSTDYGIFQINSRYWCNDGKTPGAVNACHLSCSALLQDNIADAVACAKRVVRDPQGIRAWVAWRNRCQNRDVRQYVQGCGV [V20N] | 1.34 | 1.7 | 114

Same assay, conditions: Homo sapiens; pH 2.7; Thermal; DSC; Gly-HCl 0.05 M; structure 1LZ1; whole UniProt chain shown

Row | Variant | Tm [°C] | change of melting temperature, mutant - wild type (higher = more stable) [°C]
6 | MKALIVLGLVLLSVTVQGKRFERCELARTLKRLGMDGYRGISLANWMCLAKWESGYNTRATNYNAGDRSTDYGIFQINSRYWCNDGKTPGAVNACHLSCSALLQDNIADAVACAKRVVRDPQGIRAWVAWRNRCQNRDVRQYVQGCGV [V20R] | 63.6 | -1.3
7 | MKALIVLGLVLLSVTVQGKSFERCELARTLKRLGMDGYRGISLANWMCLAKWESGYNTRATNYNAGDRSTDYGIFQINSRYWCNDGKTPGAVNACHLSCSALLQDNIADAVACAKRVVRDPQGIRAWVAWRNRCQNRDVRQYVQGCGV [V20S] | 60.5 | -4.4
8 | MKALIVLGLVLLSVTVQGKNFERCELARTLKRLGMDGYRGISLANWMCLAKWESGYNTRATNYNAGDRSTDYGIFQINSRYWCNDGKTPGAVNACHLSCSALLQDNIADAVACAKRVVRDPQGIRAWVAWRNRCQNRDVRQYVQGCGV [V20N] | 60.8 | -4.1

Same assay, conditions: Homo sapiens; pH 2.88; Thermal; DSC; Gly-HCl 0.05 M; structure 1LZ1; whole UniProt chain shown

Row | Variant | Tm [°C] | unfolding enthalpy (calorimetric) [kcal/mol] | unfolding enthalpy (van 't Hoff) [kcal/mol]
9 | MKALIVLGLVLLSVTVQGKRFERCELARTLKRLGMDGYRGISLANWMCLAKWESGYNTRATNYNAGDRSTDYGIFQINSRYWCNDGKTPGAVNACHLSCSALLQDNIADAVACAKRVVRDPQGIRAWVAWRNRCQNRDVRQYVQGCGV [V20R] | 66.4 | 108 | 115

Same assay, conditions: Homo sapiens; pH 3.15; Thermal; DSC; Gly-HCl 0.05 M; structure 1LZ1; whole UniProt chain shown

Row | Variant | Tm [°C] | unfolding enthalpy (calorimetric) [kcal/mol] | unfolding enthalpy (van 't Hoff) [kcal/mol]
10 | MKALIVLGLVLLSVTVQGKRFERCELARTLKRLGMDGYRGISLANWMCLAKWESGYNTRATNYNAGDRSTDYGIFQINSRYWCNDGKTPGAVNACHLSCSALLQDNIADAVACAKRVVRDPQGIRAWVAWRNRCQNRDVRQYVQGCGV [V20R] | 70.7 | 114 | 123

Same assay, conditions: Homo sapiens; pH 3.3; Thermal; DSC; Gly-HCl 0.05 M; structure 1LZ1; whole UniProt chain shown

Row | Variant | Tm [°C] | unfolding enthalpy (calorimetric) [kcal/mol] | unfolding enthalpy (van 't Hoff) [kcal/mol]
11 | MKALIVLGLVLLSVTVQGKRFERCELARTLKRLGMDGYRGISLANWMCLAKWESGYNTRATNYNAGDRSTDYGIFQINSRYWCNDGKTPGAVNACHLSCSALLQDNIADAVACAKRVVRDPQGIRAWVAWRNRCQNRDVRQYVQGCGV [V20R] | 74.1 | 120 | 126

Same assay, conditions: Homo sapiens; pH 2.65; Thermal; DSC; Gly-HCl 0.05 M; structure 1LZ1; whole UniProt chain shown

Row | Variant | Tm [°C] | unfolding enthalpy (calorimetric) [kcal/mol] | unfolding enthalpy (van 't Hoff) [kcal/mol]
12 | MKALIVLGLVLLSVTVQGKSFERCELARTLKRLGMDGYRGISLANWMCLAKWESGYNTRATNYNAGDRSTDYGIFQINSRYWCNDGKTPGAVNACHLSCSALLQDNIADAVACAKRVVRDPQGIRAWVAWRNRCQNRDVRQYVQGCGV [V20S] | 59.4 | 103 | 103

Same assay, conditions: Homo sapiens; pH 2.83; Thermal; DSC; Gly-HCl 0.05 M; structure 1LZ1; whole UniProt chain shown

Row | Variant | Tm [°C] | unfolding enthalpy (calorimetric) [kcal/mol] | unfolding enthalpy (van 't Hoff) [kcal/mol]
13 | MKALIVLGLVLLSVTVQGKSFERCELARTLKRLGMDGYRGISLANWMCLAKWESGYNTRATNYNAGDRSTDYGIFQINSRYWCNDGKTPGAVNACHLSCSALLQDNIADAVACAKRVVRDPQGIRAWVAWRNRCQNRDVRQYVQGCGV [V20S] | 62.9 | 108 | 107

Same assay, conditions: Homo sapiens; pH 3.09; Thermal; DSC; Gly-HCl 0.05 M; structure 1LZ1; whole UniProt chain shown

Row | Variant | Tm [°C] | unfolding enthalpy (calorimetric) [kcal/mol] | unfolding enthalpy (van 't Hoff) [kcal/mol]
14 | MKALIVLGLVLLSVTVQGKSFERCELARTLKRLGMDGYRGISLANWMCLAKWESGYNTRATNYNAGDRSTDYGIFQINSRYWCNDGKTPGAVNACHLSCSALLQDNIADAVACAKRVVRDPQGIRAWVAWRNRCQNRDVRQYVQGCGV [V20S] | 67.1 | 115 | 114

Same assay, conditions: Homo sapiens; pH 3.45; Thermal; DSC; Gly-HCl 0.05 M; structure 1LZ1; whole UniProt chain shown

Row | Variant | Tm [°C] | unfolding enthalpy (calorimetric) [kcal/mol] | unfolding enthalpy (van 't Hoff) [kcal/mol]
15 | MKALIVLGLVLLSVTVQGKSFERCELARTLKRLGMDGYRGISLANWMCLAKWESGYNTRATNYNAGDRSTDYGIFQINSRYWCNDGKTPGAVNACHLSCSALLQDNIADAVACAKRVVRDPQGIRAWVAWRNRCQNRDVRQYVQGCGV [V20S] | 73 | 124 | 126

Same assay, conditions: Homo sapiens; pH 2.82; Thermal; DSC; Gly-HCl 0.05 M; structure 1LZ1; whole UniProt chain shown

Row | Variant | Tm [°C] | unfolding enthalpy (calorimetric) [kcal/mol] | unfolding enthalpy (van 't Hoff) [kcal/mol]
16 | MKALIVLGLVLLSVTVQGKNFERCELARTLKRLGMDGYRGISLANWMCLAKWESGYNTRATNYNAGDRSTDYGIFQINSRYWCNDGKTPGAVNACHLSCSALLQDNIADAVACAKRVVRDPQGIRAWVAWRNRCQNRDVRQYVQGCGV [V20N] | 62.7 | 110 | 105

Same assay, conditions: Homo sapiens; pH 3.01; Thermal; DSC; Gly-HCl 0.05 M; structure 1LZ1; whole UniProt chain shown

Row | Variant | Tm [°C] | unfolding enthalpy (calorimetric) [kcal/mol] | unfolding enthalpy (van 't Hoff) [kcal/mol]
17 | MKALIVLGLVLLSVTVQGKNFERCELARTLKRLGMDGYRGISLANWMCLAKWESGYNTRATNYNAGDRSTDYGIFQINSRYWCNDGKTPGAVNACHLSCSALLQDNIADAVACAKRVVRDPQGIRAWVAWRNRCQNRDVRQYVQGCGV [V20N] | 66.3 | 117 | 111
